Reference: publication PMC8104107

Target: T1, influenza A/WSN/33 virus nucleoprotein (NP), recombinant (influenza A virus A/WSN/33 (H1N1)), P15682
T1 chain: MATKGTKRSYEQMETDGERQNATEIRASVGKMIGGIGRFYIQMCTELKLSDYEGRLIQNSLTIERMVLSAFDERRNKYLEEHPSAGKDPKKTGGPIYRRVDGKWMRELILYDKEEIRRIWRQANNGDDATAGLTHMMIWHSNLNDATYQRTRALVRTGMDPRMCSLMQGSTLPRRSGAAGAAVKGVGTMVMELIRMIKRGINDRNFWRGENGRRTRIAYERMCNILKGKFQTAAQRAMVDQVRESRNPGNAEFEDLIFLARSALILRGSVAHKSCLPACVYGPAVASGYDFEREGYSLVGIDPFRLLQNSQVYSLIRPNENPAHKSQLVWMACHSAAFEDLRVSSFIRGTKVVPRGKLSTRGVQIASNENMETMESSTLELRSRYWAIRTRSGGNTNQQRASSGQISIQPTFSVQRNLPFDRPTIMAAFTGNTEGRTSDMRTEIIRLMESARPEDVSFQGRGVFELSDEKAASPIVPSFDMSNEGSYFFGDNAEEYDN
Test: crystal structure; NP mixed with FA-6005 (final 0.5 mM) before crystallization; 0.1 M sodium acetate, 0.05 M magnesium acetate, 0.1 M MES pH 6.0, 7% PEG 8000, 5% glycerol; space group C222(1), one trimer in each asymmetric unit
Details: remark: other sources report otherwise

B1: influenza A/WSN/33 virus nucleoprotein (NP), recombinant, P15682 1-498 (natural protein)
chain: MATKGTKRSYEQMETDGERQNATEIRASVGKMIGGIGRFYIQMCTELKLSDYEGRLIQNSLTIERMVLSAFDERRNKYLEEHPSAGKDPKKTGGPIYRRVDGKWMRELILYDKEEIRRIWRQANNGDDATAGLTHMMIWHSNLNDATYQRTRALVRTGMDPRMCSLMQGSTLPRRSGAAGAAVKGVGTMVMELIRMIKRGINDRNFWRGENGRRTRIAYERMCNILKGKFQTAAQRAMVDQVRESRNPGNAEFEDLIFLARSALILRGSVAHKSCLPACVYGPAVASGYDFEREGYSLVGIDPFRLLQNSQVYSLIRPNENPAHKSQLVWMACHSAAFEDLRVSSFIRGTKVVPRGKLSTRGVQIASNENMETMESSTLELRSRYWAIRTRSGGNTNQQRASSGQISIQPTFSVQRNLPFDRPTIMAAFTGNTEGRTSDMRTEIIRLMESARPEDVSFQGRGVFELSDEKAASPIVPSFDMSNEGSYFFGDNAEEYDN
- stoichiometry N: 3
